Test results taken from the supplement of paper PMC7877785.
± gives the uncertainty stated by the source.

Assay: self-splicing fitness, log relative to wild type (ln ratio); higher = more splicing; Tetrahymena group I intron in knt gene, E. coli kanamycin selection, DiMSum; sequences stand for … in CUCUCU…GGAGGGAAAAGUUAUCAGGCAUGCACCUGGUAGCUAGUCUUUAAACCAAUAGAUUGCAUCGGUUUAAAAGGCAAGACCGUCAAAUUGCGGGAAAGGGGUCAACAGCCGUUCAGUACCAAGUCUCAGGGGAAACUUUGAGAUGGCCUUGCAAAGGGUAUGGUAAUAAGCUGACGGACAUGGUCCUAACCACGCAGCCAAGUCCUAAGUCAACAGAUCUUCUGUUGAUAUGGAUGCAGUUCACAGACUAAAUGUCGGUCGGGGAAGAUGUAUUCUUCUCAUAAGAUAUAGUCGGACCUCUCCUUAAUGGGAGCUAGCGGAUGAAGUGAUGCAACACUGGAGCCGCUGGGAACUAAUUUGUAUGCGAAAGUAUAUUGAUUAGUUUUGGAGUACUCGUGGUCG
How it was run: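 The eight P1ex-region nucleotides of an intron in the knt kanamycin-resistance gene on pET-22b(+) were all randomised and the library put into E. coli BL21(DE3). Six replicate transformations were grown overnight at 37°C or 30°C on LB agar with or without 25 μg/mL kanamycin, together with 100 μg/mL carbenicillin, 50 μM IPTG and 0.2% rhamnose. Colonies were pooled and amplicon-sequenced on an Illumina HiSeq 2500. Fitness from DiMSum is the error-weighted combination of wild-type-normalised replicate fold changes, kanamycin over none.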

| Sequence | self-splicing fitness (ln) (30 °C) | self-splicing fitness (ln) (37 °C) |
| --- | --- | --- |
| UACAAGCAAUAUUACGUCCC | -1.25 ± 0.39 | -1.58 ± 0.42 |
| GUUCAGCAAUAUUACGCUGA | -2.16 ± 0.24 | -2.43 ± 0.31 |
| GCUAAGCAAUAUUACGAAAC | -1.17 ± 0.14 | -0.452 ± 0.2 |
| AUUAAGCAAUAUUACGAGAA |  | -1.08 ± 0.38 |
| GGUGAGCAAUAUUACGUCAC | -3.1 ± 0.34 |  |
| UUGGAGCAAUAUUACGAUAA | -2.08 ± 0.26 | 0.881 ± 0.28 |
| GCGAAGCAAUAUUACGAAAG | -4.38 ± 0.4 | -1.14 ± 0.18 |
| UGAGAGCAAUAUUACGCCUA | -1.58 ± 0.22 | -0.073 ± 0.21 |
| GAAAAGCAAUAUUACGUGGC | -3.57 ± 0.2 | -2.06 ± 0.16 |
| UCCAAGCAAUAUUACGCGCC | -3.47 ± 0.27 | -2.31 ± 0.32 |
| UUAAAGCAAUAUUACGCCGC | -2.1 ± 0.39 | 0.305 ± 0.29 |
| AGUAAGCAAUAUUACGUGAG | -3.88 ± 0.15 | -1.07 ± 0.11 |
| GGCUAGCAAUAUUACGAGAU | -3.58 ± 0.21 | -1.34 ± 0.14 |
| GGCGAGCAAUAUUACGAGUC | -1.61 ± 0.36 |  |
| AGUUAGCAAUAUUACGACCU | -0.34 ± 0.09 | -0.469 ± 0.097 |
| GCAUAGCAAUAUUACGCUUC |  | -2.69 ± 0.19 |
| CCUUAGCAAUAUUACGUUGU | -3.12 ± 0.17 | -3.27 ± 0.24 |
| UGACAGCAAUAUUACGCGGG | -2.59 ± 0.17 | -1.24 ± 0.14 |
| GACCAGCAAUAUUACGCUUC | -2.01 ± 0.1 | -1.66 ± 0.14 |
| UUACAGCAAUAUUACGAUUG | -1.76 ± 0.091 | -0.796 ± 0.1 |
| ACCCAGCAAUAUUACGUAAU | -0.676 ± 0.035 | 0.426 ± 0.061 |
| UGGCAGCAAUAUUACGCUAC | -3.85 ± 0.35 |  |
| GACGAGCAAUAUUACGCGCA | -1.71 ± 0.23 | -1.3 ± 0.21 |
| GCUAAGCAAUAUUACGGAUA | -2.45 ± 0.24 | -0.375 ± 0.18 |
| UACAAGCAAUAUUACGUGAC | -3.89 ± 0.18 | -1.85 ± 0.1 |
| ACACAGCAAUAUUACGGUCA | -0.813 ± 0.071 | 0.0237 ± 0.077 |

| Sequence | self-splicing fitness (ln) (30 °C) | self-splicing fitness (ln) (37 °C) |
| --- | --- | --- |
| UCCUAGCAAUAUUACGCUAA | -2.98 ± 0.31 | -3.02 ± 0.29 |
| CCUAAGCAAUAUUACGGUAU | -3.72 ± 0.23 | -1.85 ± 0.24 |
| AAAAAGCAAUAUUACGGGUA | -1.61 ± 0.11 | -0.435 ± 0.11 |
| CUAUAGCAAUAUUACGGGCA | -3.19 ± 0.26 | -1.89 ± 0.18 |
| CCUUAGCAAUAUUACGGCGC | -2.98 ± 0.27 |  |
| GGGAAGCAAUAUUACGGACU | -1.99 ± 0.17 | -0.24 ± 0.19 |
| AGUAAGCAAUAUUACGUAAA | -3.2 ± 0.34 | -1.75 ± 0.21 |
| UAGGAGCAAUAUUACGCACU |  | -0.383 ± 0.28 |
| AGCCAGCAAUAUUACGCUUU | -2.84 ± 0.089 | -0.852 ± 0.086 |
| UUGCAGCAAUAUUACGAAUA | -1.66 ± 0.1 | -0.197 ± 0.13 |
| CUCUAGCAAUAUUACGUUGC | -3.71 ± 0.3 | -3.08 ± 0.35 |
| UCCAAGCAAUAUUACGUGUG | -2.08 ± 0.066 | -1.75 ± 0.081 |
| GGGGAGCAAUAUUACGUCUG | -2.55 ± 0.37 | -1.24 ± 0.24 |
| UGUUAGCAAUAUUACGAUAU | -2.45 ± 0.21 | -0.289 ± 0.25 |
| CGACAGCAAUAUUACGAUCU | -0.335 ± 0.1 | 0.552 ± 0.094 |
| UUCAAGCAAUAUUACGACAC | -2.8 ± 0.28 | -1.39 ± 0.18 |
| AAGAAGCAAUAUUACGGAGA | -3.38 ± 0.19 | -2.62 ± 0.2 |
| CAGCAGCAAUAUUACGAAGG | -1.16 ± 0.11 | -1.05 ± 0.11 |
| CGACAGCAAUAUUACGUUGA | -3.63 ± 0.15 | -1.85 ± 0.1 |
| CCUUAGCAAUAUUACGGUCG | -0.919 ± 0.092 | -0.755 ± 0.097 |
| AAGGAGCAAUAUUACGGAUG | -3.8 ± 0.21 | -3.29 ± 0.35 |
| UCUCAGCAAUAUUACGGUGU | -2.03 ± 0.086 | -1 ± 0.097 |
| AUUUAGCAAUAUUACGCGUU | -2.01 ± 0.2 | -1.3 ± 0.19 |
| GUAGAGCAAUAUUACGCCUG | -1.21 ± 0.31 | -0.594 ± 0.32 |
| CUUAAGCAAUAUUACGACAA | -2.75 ± 0.41 | -2.98 ± 0.34 |
| GAGCAGCAAUAUUACGGUAG | -4.29 ± 0.2 | -3.24 ± 0.24 |

| Sequence | self-splicing fitness (ln) (30 °C) | self-splicing fitness (ln) (37 °C) |
| --- | --- | --- |
| GUUAAGCAAUAUUACGGGAA | -1.87 ± 0.34 | -1.86 ± 0.29 |
| UACGAGCAAUAUUACGCUGU | -2.78 ± 0.28 | -1.47 ± 0.39 |
| CGGAAGCAAUAUUACGAUAA |  | -1.52 ± 0.25 |
| UCUAAGCAAUAUUACGUCCG | -0.454 ± 0.15 | -0.55 ± 0.14 |
| AAGAAGCAAUAUUACGGCAU | 0.143 ± 0.12 | -0.43 ± 0.16 |
| GUUUAGCAAUAUUACGGGAC |  | -1.98 ± 0.39 |
| GAGAAGCAAUAUUACGAUCU | -1.66 ± 0.097 | -0.515 ± 0.095 |
| CCUAAGCAAUAUUACGCGGG | -3.96 ± 0.21 | -2.68 ± 0.21 |
| UUGAAGCAAUAUUACGCGGU | -2.94 ± 0.16 | -2.3 ± 0.19 |
| GAGAAGCAAUAUUACGGGUG | -1.72 ± 0.15 | -1.88 ± 0.14 |
| ACCCAGCAAUAUUACGCCGU | -1.37 ± 0.064 | -0.415 ± 0.081 |
| UCGUAGCAAUAUUACGUAUU | -3.9 ± 0.28 | -0.594 ± 0.14 |
| ACAGAGCAAUAUUACGGAGC | -4.22 ± 0.34 | -3.15 ± 0.25 |
| AGGGAGCAAUAUUACGUCAC | -2.07 ± 0.24 | -2.69 ± 0.26 |
| AUGUAGCAAUAUUACGGACA | -0.611 ± 0.083 | 0.202 ± 0.12 |
| GUCCAGCAAUAUUACGAGUA | -2.36 ± 0.16 | -0.787 ± 0.12 |
| CCUCAGCAAUAUUACGAGCG | -2 ± 0.094 | -1.05 ± 0.088 |
| CUUAAGCAAUAUUACGCGUG | -2.99 ± 0.15 | -1.26 ± 0.12 |
| UUUUAGCAAUAUUACGUUGC | -2.8 ± 0.43 |  |
| UUAAAGCAAUAUUACGAGCG | -0.119 ± 0.086 | 0.287 ± 0.12 |
| CCUGAGCAAUAUUACGGUCG | -3.95 ± 0.19 | -2.97 ± 0.19 |
| CCCAAGCAAUAUUACGGACG | -2.8 ± 0.13 | -2.17 ± 0.11 |
| AAUCAGCAAUAUUACGCUUA | -0.484 ± 0.072 | 0.347 ± 0.098 |
| GAUUAGCAAUAUUACGAUAG | -2.37 ± 0.13 | -1.1 ± 0.16 |
| GGCUAGCAAUAUUACGGAGA | -3.65 ± 0.37 |  |
| ACCCAGCAAUAUUACGUUCC | -2.32 ± 0.11 | -1.02 ± 0.14 |
